Measured values as given in publication PMC6380602, “The polymeric immunoglobulin receptor-like protein from Marsupenaeus japonicus is a receptor for white spot syndrome virus infection” (PLoS Pathogens, 2019).

Biological target: the molecule itself
Test: cross-linking; BS3 (5 mM, 2 h, room temperature) on hemocytes of shrimp 30 min after WSSV injection, SDS-PAGE, western blotting with anti-MjpIgR antibodies; oligomer size by molecular mass

B1: native MjpIgR (Marsupenaeus japonicus polymeric immunoglobulin receptor-like protein) (receptor, UniProt A0A3S8D7Y1 1-562, looked up)
chain: QEYSVDEPNNRDVVFNGVQSSDVSLIFDDADIIVNPGERLDLNCGFQGQYRHCIWELEGAKPIQVQDVYDDVHPGMSRPEVSEGNECGIVINSVSTEQHGKWTCRVFITGNSLEGSKKVIVTVKPTYPILEVDNSQLLEVTSDAETPVKCVVAAARPAVGIRWFLGDKDVTVMAETEETPTDNEGMYKSISTLRRTFEPMENGMMLVCSVSHKTLTVPENASIPLNVVFKPVEKPVSTYYQIRPGSDYEVKLNFSANPPPTRKEWRYGDTFQNIAVSIEIPGAKDRYETYIEELGNGMYTATLRIAGFKEEDANQRYMLVVQNDLGETSYKVRLSMDDAPKDGDSETRDHDKNPSTEYSVSEGIVFDDDTMSNTLSGGAVAGIVIVVLIIVTAVAAAGYARYRQMFCFAPVVTPDPEEGKETKEEHSDTESARGANTTRAANLKNSLGRLTQVFKKPKKEQETKLENIGDDEKRSLTTEDPKKGSPIKEQNVDDKEVVYAELDLGKSESDKKTEVKAEDKTEYAQIVGTVTDNREDEKKE
notes: also called pIgR-like protein; source: endogenous, hemocytes of M. japonicus 30 min after WSSV injection
- stoichiometry N: 4
